Measurements from patent US20080254032A1 (published 2008).
Like-named read-outs stand apart in the source and are kept apart here.

T1: human M-CSF (human, UniProt P09603 33-190)
T1 chain: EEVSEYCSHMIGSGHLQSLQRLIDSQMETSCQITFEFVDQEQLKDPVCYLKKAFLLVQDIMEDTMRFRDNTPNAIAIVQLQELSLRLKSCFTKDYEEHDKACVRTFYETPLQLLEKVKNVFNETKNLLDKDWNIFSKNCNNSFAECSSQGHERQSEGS


Columns and labels:
human M-CSF [1] = target: T1, human M-CSF; assay: SPR, BIACORE 3000, 25 C, M-CSF amine-coupled on CM5 chip, antibody injected, 1:1 global fit
human M-CSF [2] = target: T1, human M-CSF; assay: receptor binding inhibition: antibody titrated against 125I-M-CSF binding to c-fms on cells (NIH-3T3/human c-fms or M-NSF-60)
human M-CSF [3] = target: T1, human M-CSF; assay: cell-based or functional assay
human M-CSF [4] = target: T1, human M-CSF; assay: SPR, BIACORE 3000, 25 C, M-CSF amine-coupled on B1 chip, antibody injected, 1:1 global fit
human M-CSF [5] = target: T1, human M-CSF; assay: receptor binding inhibition: antibody titrated against 125I-M-CSF binding to c-fms on cells (NIH-3T3/human c-fms or M-NSF-60)
human M-CSF [6] = target: T1, human M-CSF; assay: cell-based or functional assay

| Binder | Kd (human M-CSF [1]) | koff (human M-CSF [1]) | IC50 (human M-CSF [2]) | Human Whole Blood Monocyte Activation Assay [IC50, M] (human M-CSF [3]) | M-CSF Mouse Monocytic Cell Proliferation Assay [IC50, M] (human M-CSF [3]) | Kd (human M-CSF [4]) | IC50 (human M-CSF [5]) | Human Whole Blood Monocyte Activation Assay [IC50, M] (human M-CSF [6]) | M-CSF Mouse Monocytic Cell Proliferation Assay [IC50, M] (human M-CSF [6]) |
| --- | --- | --- | --- | --- | --- | --- | --- | --- | --- |
| monoclonal antibody 100 (antibody, human IgG2, kappa, V domains shown) VH: EVQLLESGGGLVQPGGSLRLSCAASGFTFSSYAMSWVRQAPGKGLEWVSAISGRGGRTYFADSVKGRFTISRDNSKNTLYLQMNSLRAEDTAVYFCAVEGYSGRYGFFDYWGQGTLVTVSS VL: EIVMTQSPATLSVSPGERATLSCRASQSVSSNLAWYQQKPGQAPRLLIYGASTRASGIPDRISGSGSGTEFTLIISSLQSEDFAVYYCQQSNNWPFTFGPGTKVDIKR | 0.02 nM | 1.7e-05 s⁻¹ | 1.25 nM | 1.53e-10 M | 7.44e-10 M | – | – | – | – |
| monoclonal antibody 2.7.3 (antibody, human IgG4, kappa, V domains shown) VH: QVQLVESGGGVVQPGRSLRLSCAASGFTFSSYGMHWVRQAPGKGLEWVAFIWYDGSNKYYADSVKGRFTISRDNSKNTLYLQMNSLRAEDTAVYYCARGYRVYFDYWGQGTLVTVSS VL: DIQMTQSPSSVSASVGDRVTITCRASQDISSWLAWYQRKPGKAPKLQIYAASSLESGVPSRFNGSGSGTDFTLSISSLQPEDFATYYCQQTNSFPLTFGGGTKVEIKR | – | – | 0.308 nM | 7.15e-10 M | 1.96e-10 M | 4.7 nM | – | – | – |
| monoclonal antibody 8.10.3 (antibody, human IgG2, kappa, V domains shown, Human antibody from hybridoma 8.10.3) VH: EVQLVESGGGLVQPGGSLRLSCAASGFTFSSFSMTWVRQAPGKGLEWVSYISSRSSTISYADSVKGRFTISRDNAKNSLYLQMNSLRDEDTAVYYCARDPLLAGATFFDYWGQGTLVTVSS VL: not shown | – | – | – | – | – | – | 1.5 nM | 2.8e-10 M | 4.13e-10 M |
| monoclonal antibody 252 (antibody, human IgG2, kappa, V domains shown) VH: QVQLVESGGGLVKPGGSLRLSCAASGFTFSDYYMSWIRQAPGKGLEWISYISGSGSTIYYADSVKGRFTISRDNAKNSLYLQMNSLRAEDTAVYHCARALGGMDVWGQGTTVTVSS VL: DIQMTQSPSSLSASVGDRVTITCRASQSISGFLNWYQQKPGKAPKLLIYATSSLQSGVPFRFSGSGSGTDFTLTISSLQPEDFATYYCQQSYSVPFTFGPGTKVDIKR | 0.0133 nM | 1.03e-06 s⁻¹ | 0.747 nM | 8.67e-10 M | 1.86e-10 M | – | – | – | – |
| monoclonal antibody 88 (antibody, human IgG2, kappa, V domains shown) VH: EVQLVESGGGLVQPGGSLRLSCAASGFTFSSYWMSWVRQAPGKGLEWVANIKQDGSEKYYVDSVKGRFTISRDNAKNSLYLQMNSLRAEDTAVYYCAPGIAAAGRAYWGQGTLVTVSS VL: DIQMTQSPSSLSASVGDRVTITCRPSQDISSYLNWYQQKPGKAPKLLIYAASSLQSGVPLRFSGSGSGTDFTLTISSLQPEDFATYYCQQSYSTPFTFGPGTKVDIKR | 1.33 nM | 7.3e-05 s⁻¹ | 0.445 nM | 5.8e-10 M | 2.31e-10 M | – | – | – | – |
| monoclonal antibody 9.7.2IF (antibody, human IgG2, kappa, V domains shown) VH: QVQLVESGGGLVKPGGSLRLSCAASGFTFSDYYMSWIRQAPGKGLEWVSYISSSGSTIYYADSVKGRFTISRDNAKNSLYLQMNSLRAEDTAVYYCARRIGGMDVWGQGTTVTVSS VL: DIQMTQSPSSLSASVGDRVTITCRASQSISGFLIWYQQRPGKAPKLLIYATSSLQSGVPSRFSGSGSGTDFTLTISSLQPEDFATYYCQQSYSTPFTFGPGTKVDIKR | – | – | – | – | – | – | 0.529 nM | 1.12e-09 M | 7.37e-10 M |
| monoclonal antibody 9.7.2 (antibody, human IgG4, kappa, V domains shown) VH: QVQLVESGGGLVKPGGSLRLSCAASGFTFSDYYMSWIRQAPGKGLEWVSYISSSGSTIYYADSVKGRFTISRDNAKNSLYLQMNSLRAEDTAVYYCARRIGGMDVWGQGTTVTVSS VL: DIQMTQSPSSLSASVGDRVTITCRASQSISGFLIWYQQRPGKAPKLLIYATSSLQSGVPLRFSGSESGTDFTLTISSLQPEDFATYYCQQSYSTPFTFGPGTKVDIKR | – | – | – | – | – | – | 0.006 nM | 1.98e-10 M | 7.37e-10 M |
| monoclonal antibody 9.14.4I (antibody, human IgG2, kappa) heavy: QVQLVESGGGLVKPGGSLRLSCAASGFTFSDYYMSWIRQAPGKGLEWVSYISSSGSTIYYADSVKGRFTISRDNAKNSLYLQMNSLRAEDTAVYYCARGLTGDYWGQGTLVTVSSASTKGPSVFPLAPCSRSTSESTAALGCLVKDYFPEPVTVSWNSGALTSGVHTFPAVLQSSGLYSLSSVVTVPSSNFGTQTYTCNVDHKPSNTKVDKTVERKCCVECPPCPAPPVAGPSVFLFPPKPKDTLMISRTPEVTCVVVDVSHEDPEVQFNWYVDGVEVHNAKTKPREEQFNSTFRVVSVLTVVHQDWLNGKEYKCKVSNKGLPAPIEKTISKTKGQPREPQVYTLPPSREEMTKNQVSLTCLVKGFYPSDIAVEWESNGQPENNYKTTPPMLDSDGSFFLYSKLTVDKSRWQQGNVFSCSVMHEALHNHYTQKSLSLSPGK light: not shown | – | – | – | – | – | – | 0.297 nM | 2.49e-10 M | 2.02e-10 M |
| monoclonal antibody 3.8.3 (antibody, human IgG2, kappa, V domains shown) VH: QVQLVESGGGLVKPGGSLRLSCAASGFTFSDYYMSWIRQAPGKGLEWFSYISSSGSTIYYADSVKGRFTISRDNAKNSLSLQMNSLRAEDTAVYYCARGLTGDYWGQGTLVTVSS VL: DIQMTQSPSSVSASVGDRVTISCRASQDISGWLAWYQQKPGKAPKLLISATSSLHSGVPSRFSGSGSGTDFTLTISSLQPEDFATYYCQQTNSFPFTFGPGTKVDIKR | – | – | 0.07 nM | 8.6e-11 M | 7.3e-11 M | 0.4 nM | – | – | – |
| monoclonal antibody 9.14.4 (antibody, human IgG4, kappa) heavy: QVQLVESGGGLVKPGGSLRLSCAASGFTFSDYYMSWIRQAPGKGLEWVSYISSSGSTIYYADSVKGRFTISRDNAKNSLYLQMNSLRAEDTAVYYCARGLTGDYWGQGTLVTVSSASTKGPSVFPLAPCSRSTSESTAALGCLVKDYFPEPVTVSWNSGALTSGVHTFPAVLQSSGLYSLSSVVTVPSSSLGTKTYTCNVDHKPSNTKVDKRVESKYGPPCPSCPAPEFLGGPSVFLFPPKPKDTLMISRTPEVTCVVVDVSQEDPEVQFNWYVDGVEVHNAKTKPREEQFNSTYRVVSVLTVLHQDWLNGKEYKCKVSNKGLPSSIEKTISKAKGQPREPQVYTLPPSQEEMTKNQVSLTCLVKGFYPSDIAVEWESNGQPENNYKTTPPVLDSDGSFFLYSRLTVDKSRWQEGNVFSCSVMHEALHNHYTQKSLSLSPGK light: not shown | – | – | – | – | – | – | 0.041 nM | 6.48e-10 M | 2.02e-10 M |
| monoclonal antibody 1.120.1 (antibody, human IgG2, kappa, V domains shown) VH: QVQLVQSGAEVKKPGASVKVSCKASGYTFTSYGISWVRQAPGQGLEWMGWISAYNGNTNYAQKLQDRVTMTTDTSTTTAYMELRSLRSDDTAVYYCARRAYGANFFDYWGQGTLVTVSS VL: not shown | – | – | 0.157 nM | 8.85e-10 M | 1.99e-10 M | 5.4 nM | – | – | – |
